Data on one molecule can be found in PMC11535040, “Requirement of Nek2a and cyclin A2 for Wapl-dependent removal of cohesin from prophase chromatin” (The EMBO Journal, 2024).

The assay addresses T1, Flag-tagged Pds5a (human, UniProt Q29RF7 1-1337).
T1 construct: Pds5a, human; insert by PCR on human cDNA; also called Flag-Pds5; source: Hek293T, transfected (alone or with eGFP-Nek2aΔMR and eGFP-Δ86-cyclin A2), taxol-arrested
T1 sequence (looked up): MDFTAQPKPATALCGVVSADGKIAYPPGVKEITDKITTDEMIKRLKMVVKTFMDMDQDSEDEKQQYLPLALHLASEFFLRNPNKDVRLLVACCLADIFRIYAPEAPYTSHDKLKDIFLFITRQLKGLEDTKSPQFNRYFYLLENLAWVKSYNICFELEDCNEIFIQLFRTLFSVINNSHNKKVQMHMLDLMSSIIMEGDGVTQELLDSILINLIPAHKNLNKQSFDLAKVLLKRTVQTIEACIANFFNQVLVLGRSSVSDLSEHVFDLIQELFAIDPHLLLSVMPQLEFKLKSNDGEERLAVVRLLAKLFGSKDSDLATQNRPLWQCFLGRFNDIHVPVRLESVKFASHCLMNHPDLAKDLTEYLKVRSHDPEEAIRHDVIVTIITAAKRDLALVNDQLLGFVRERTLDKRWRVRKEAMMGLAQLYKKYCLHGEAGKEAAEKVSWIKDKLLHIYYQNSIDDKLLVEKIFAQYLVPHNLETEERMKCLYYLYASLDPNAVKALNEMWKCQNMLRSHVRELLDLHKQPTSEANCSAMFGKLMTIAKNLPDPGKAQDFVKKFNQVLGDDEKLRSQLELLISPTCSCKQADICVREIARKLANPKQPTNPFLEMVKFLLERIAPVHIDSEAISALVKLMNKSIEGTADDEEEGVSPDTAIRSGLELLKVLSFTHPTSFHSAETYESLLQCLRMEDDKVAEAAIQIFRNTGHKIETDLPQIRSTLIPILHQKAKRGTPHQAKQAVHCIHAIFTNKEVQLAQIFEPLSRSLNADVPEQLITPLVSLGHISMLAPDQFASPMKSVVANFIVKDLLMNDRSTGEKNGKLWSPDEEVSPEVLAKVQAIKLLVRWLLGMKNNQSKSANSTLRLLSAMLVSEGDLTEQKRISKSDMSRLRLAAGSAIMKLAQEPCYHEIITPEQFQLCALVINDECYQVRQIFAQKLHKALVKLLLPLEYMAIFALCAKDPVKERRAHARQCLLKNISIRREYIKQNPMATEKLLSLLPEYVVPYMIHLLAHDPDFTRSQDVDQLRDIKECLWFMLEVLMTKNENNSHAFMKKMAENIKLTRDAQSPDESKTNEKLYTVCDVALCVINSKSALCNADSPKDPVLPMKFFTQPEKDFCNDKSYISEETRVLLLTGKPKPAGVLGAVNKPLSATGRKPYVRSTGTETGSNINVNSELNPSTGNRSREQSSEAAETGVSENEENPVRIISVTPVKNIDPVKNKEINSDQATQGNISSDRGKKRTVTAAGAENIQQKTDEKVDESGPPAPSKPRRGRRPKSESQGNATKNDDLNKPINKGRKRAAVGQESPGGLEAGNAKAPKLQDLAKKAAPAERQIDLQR
The experiment in a line: pull-down; Flag-Pds5a or -b affinity-purified on anti-Flag beads from chromatin-free lysates of taxol-arrested Hek293T cells (expressed alone or with Nek2aΔMR and/or Δ86-cyclin A2); beads incubated with a mixture of recombinant Wapl (2 µl) and sororin (0.3 µg) in 15 µl cleavage buffer with kinase inhibitors, 20 min at 37 °C; bound and unbound fractions by immunoblotting. As to conditions: both partners purified. (In general: In western blotting, separated proteins are transferred to a membrane and probed.)

B1: recombinant human Wapl (natural protein, UniProt Q7Z5K2 1-1190, looked up)
chain: MTSRFGKTYSRKGGNGSSKFDEVFSNKRTTLSTKWGETTFMAKLGQKRPNFKPDIQEIPKKPKVEEESTGDPFGFDSDDESLPVSSKNLAQVKCSSYSESSEAAQLEEVTSVLEANSKISHVVVEDTVVSDKCFPLEDTLLGKEKSTNRIVEDDASISSCNKLITSDKVENFHEEHEKNSHHIHKNADDSTKKPNAETTVASEIKETNDTWNSQFGKRPESPSEISPIKGSVRTGLFEWDNDFEDIRSEDCILSLDSDPLLEMKDDDFKNRLENLNEAIEEDIVQSVLRPTNCRTYCRANKTKSSQGASNFDKLMDGTSQALAKANSESSKDGLNQAKKGGVSCGTSFRGTVGRTRDYTVLHPSCLSVCNVTIQDTMERSMDEFTASTPADLGEAGRLRKKADIATSKTTTRFRPSNTKSKKDVKLEFFGFEDHETGGDEGGSGSSNYKIKYFGFDDLSESEDDEDDDCQVERKTSKKRTKTAPSPSLQPPPESNDNSQDSQSGTNNAENLDFTEDLPGVPESVKKPINKQGDKSKENTRKIFSGPKRSPTKAVYNARHWNHPDSEELPGPPVVKPQSVTVRLSSKEPNQKDDGVFKAPAPPSKVIKTVTIPTQPYQDIVTALKCRREDKELYTVVQHVKHFNDVVEFGENQEFTDDIEYLLSGLKSTQPLNTRCLSVISLATKCAMPSFRMHLRAHGMVAMVFKTLDDSQHHQNLSLCTAALMYILSRDRLNMDLDRASLDLMIRLLELEQDASSAKLLNEKDMNKIKEKIRRLCETVHNKHLDLENITTGHLAMETLLSLTSKRAGDWFKEELRLLGGLDHIVDKVKECVDHLSRDEDEEKLVASLWGAERCLRVLESVTVHNPENQSYLIAYKDSQLIVSSAKALQHCEELIQQYNRAEDSICLADSKPLPHQNVTNHVGKAVEDCMRAIIGVLLNLTNDNEWGSTKTGEQDGLIGTALNCVLQVPKYLPQEQRFDIRVLGLGLLINLVEYSARNRHCLVNMETSCSFDSSICSGEGDDSLRIGGQVHAVQALVQLFLERERAAQLAESKTDELIKDAPTTQHDKSGEWQETSGEIQWVSTEKTDGTEEKHKKEEEDEELDLNKALQHAGKHMEDCIVASYTALLLGCLCQESPINVTTVREYLPEGDFSIMTEMLKKFLSFMNLTCAVGTTGQKSISRVIEYLEHC
notes: Wapl, human; insert by PCR on human cDNA; Isolated from mitotically arrested cells; also called GFP-SUMOstar-Wapl; source: Hek293T, transiently transfected, taxol-arrested; not shown: GFP, N-terminal, cleaved; SUMOstar, N-terminal, cleaved
For B1, the binding result is recorded as “binds”.
